Measured values published in patent US20240392015A1 (OREGON HEALTH AND SCIENCE UNIVERSITY, published 2024).

B1: leronlimab (human IgG4 Fc) (antibody, V domains shown)
VH: EVQLVESGGGLVKPGGSLRLSCAASGYTFSNYWIGWVRQAPGKGLEWIGDIYPGGNYIRNNEKFKDKTTLSADTSKNTAYLQMNSLKTEDTAVYYCGSSFGSNYVFAWFTYWGQGTLVTVSS
VL: DIVMTQSPLSLPVTPGEPASISCRSSQRLLSSYGHTYLHWYLQKPGQSPQLLIYEVSNRFSGVPDRFSGSGSGTDFTLKISRVEAEDVGVYYCSQSTHVPLTFGQGTKVEIK
notes: also called PRO140; PRO 140
B2: macaque IgG4 LS leronlimab (antibody, V domains shown)
VH: B1 VH
VL: DIVMTQSPLSLPVTPGEPASISCRSSQRLLSSYGHTYLHWYLQKPGQSPQLLIYEVSNRFSGVPDRFSGSGSGTDFTLKISRVEAEDVGVYYCSQSTHVPLTFGQGTKVEIKR
notes: also called MacLS; macaque IgG4 LS variant

Tests used:
[1] = target: T1, CCR5 on CD4+ T cells of rhesus macaques (rhesus macaque, UniProt P61813 1-352); assay: CCR5 receptor occupancy by flow cytometry on blood CD4+ T cells after a single 10 mg/kg s.c. dose in rhesus macaques
T1 construct: also called surface CCR5; CD195

[2] = target: T1, CCR5 on CD4+ T cells of rhesus macaques; assay: CCR5 receptor occupancy by flow cytometry on blood, rectal and vaginal CD4+ T cells after a single 10 mg/kg s.c. dose in rhesus macaques

Binder	binding result [1]	binding result [2]
B1	binds	
B2		binds
